Experimental findings from US20260008817A1, “CYCLIC PEPTIDE OR SALT THEREOF, AND USES THEREOF” (FUJIFILM Corporation, priority 2023, published 2026) are described below.

Positions of bridges follow the written chain, without caps; N, C: chain ends. No end group written: not given here. COCH2 = acetyl group that carries the bridge

In the assay the target is T1, Recombinant Human FGFR1 alpha (IIIc) Fc Chimera Protein (Homo sapiens, UniProt P11362).
T1 construct: purchased R&D systems 658-FR-050
T1 sequence (P11362 with tags, fused parts or gaps limits assumed): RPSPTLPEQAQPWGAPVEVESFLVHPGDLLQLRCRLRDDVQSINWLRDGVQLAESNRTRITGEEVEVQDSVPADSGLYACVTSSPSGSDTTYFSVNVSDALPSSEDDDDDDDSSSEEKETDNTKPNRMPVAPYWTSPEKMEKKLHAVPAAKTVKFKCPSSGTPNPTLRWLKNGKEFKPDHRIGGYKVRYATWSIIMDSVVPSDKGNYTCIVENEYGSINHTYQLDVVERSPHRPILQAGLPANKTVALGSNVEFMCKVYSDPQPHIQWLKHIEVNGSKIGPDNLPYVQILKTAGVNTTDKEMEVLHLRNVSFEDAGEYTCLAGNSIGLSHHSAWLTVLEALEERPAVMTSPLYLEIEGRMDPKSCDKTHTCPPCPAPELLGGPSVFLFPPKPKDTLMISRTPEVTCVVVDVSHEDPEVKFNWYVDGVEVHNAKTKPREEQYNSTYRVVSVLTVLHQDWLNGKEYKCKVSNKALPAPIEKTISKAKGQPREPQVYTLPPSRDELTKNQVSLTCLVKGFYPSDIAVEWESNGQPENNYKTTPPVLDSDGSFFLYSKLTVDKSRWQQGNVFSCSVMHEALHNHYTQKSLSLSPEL
In words: ELISA binding affinity of enzymatically synthesized peptide to FGFR. To be noted: ELISA luminescence signal at 10 nmol/L peptide, SEQ ID NO: 239 standardized to 1; enzyme synthesis product. As for the experimental part:
The binding affinity of the peptide to FGFR was evaluated using an ELISA method.
The peptide used for the evaluation was enzymatically synthesized by the following method.
First, a fusion peptide (SEQ ID NO: 25) in which a translation enhancing sequence (SEQ ID NO: 22), a peptide, a Myc tag (SEQ ID NO: 23), and a HiBiT tag (SEQ ID NO: 24) were linked in this order was designed. Next, a template DNA sequence (SEQ ID NO: 26) was designed in which a T7 promoter sequence, a Shine-Dalgarno sequence, a sequence necessary for transcription and translation initiation, such as a start codon (ATG), was provided on the 5′ terminal side of the DNA sequence encoding the fused peptide, and a stop codon group was provided on the 3′ terminal side thereof. In a case where the triplet TAG codon is included in the template DNA sequence, the above-described codon is assigned to the codon of chloroacetylated lysine, and thus, the peptide encoded by the above-described DNA sequence is a cyclic peptide in which a thiol group of cysteine and a chloroacetyl group of chloroacetylated lysine spontaneously form a thioether bond.
The cell-free enzymatic synthesis of the polypeptide was performed in a translation solution containing a template DNA, PUREfrex 2.0 (GeneFrontier, PF201-0.25-5), and Aminoacyl tRNA (1). 1.75 μL ([…]) of the template DNA prepared to 50 ng/μL, 2.5 μL of PUREfrex 2.0 Solution I, 0.25 μL of Solution II, 0.5 μL of Solution III, and a dried product of Aminoacyl tRNA (1) (final concentration: 0.5 ng/μL) were mixed and mixture was subjected to a reaction at 37° C. for 1 hour.
The concentration of the enzymatically synthesized peptide was measured using the peptide diluted with Can Get Signal Immunoreaction Enhancer Solution I (TOYOBO, NKB-101), Nano-Glo HiBiT Lytic Detection System (Promega, N3040), and a chemical synthetic peptide for a calibration curve having a known concentration (SEQ ID NO: 33) according to the standard protocol of the Nano-Glo HiBiT Lytic Detection System.
The binding affinity of the enzymatically synthesized peptide to FGFR was measured by evaluating the amount of the peptide bound to FGFR by ELISA.
First, 5 ng of Recombinant Human FGFR1 alpha (IIIc) Fc Chimera Protein (R&D systems, 658-FR-050) was immobilized in each well of a 96-well plate, and blocked with Pierce Protein-Free (PBS) Blocking Buffer (Thermo, 37572), and a peptide diluted with Can Get Signal Immunoreaction Enhancer Solution I (TOYOBO, NKB-101) was then added and reacted at room temperature for 3 hours. After washing with 0.05% Tween 20-containing phosphate buffered saline (PBS), an anti-Myc antibody (Cell Signaling, 14038S) diluted with Can Get Signal Immunoreaction Enhancer Solution II (TOYOBO, NKB-101) was added and reacted at room temperature for 2 hours. After washing with 0.05% Tween 20-containing PBS, SuperSignal ELISA Femto Substrate (Thermo, 37075) was added, and the luminescence amount was measured. The dose-response relationship was calculated from using the difference between the luminescence amount in the well in which FGFR was immobilized and the luminescence amount in the well in which FGFR was not immobilized, and the concentration of the peptide at the time of reaction, and the binding affinity to FGFR was evaluated according to the following evaluation criteria. The evaluation result preferably satisfies the evaluation criteria A, B, or C.
In a case where a value of a luminescence signal emitted by the cyclic peptide set forth in SEQ ID NO: 239 at a reaction concentration of 10 nmol/L is standardized to 1, evaluation criteria of the luminescence signal value emitted by the peptide at a reaction concentration of 10 nmol/L is as follows. • A: 0.7 or more • B: 0.5 or more and less than 0.7 • C: 0.1 or more and less than 0.5 • D: less than 0.1.
As for “34 (CRALLRGAPFHLAEC; disulfide 1-15 (inferred)) [compound 34]”, the “Evaluation result of binding affinity to FGFR” value (shortened to “Evaluation result”) was “D (less than 0.1)”.

In the case of “35 (CDRTLLYYRLSC; disulfide 1-12 (inferred)) [compound 35]”, the “Evaluation result” value is “D (less than 0.1)”.

Regarding “36 (CRALLRGAPFHLAEK; not fully specified; Description of Artificial Sequence: Cyclic peptide) [compound 36]”, the “Evaluation result” value is reported as “D (less than 0.1)”.

With “37 (CDRTLLYYRLSK; not fully specified; Description of Artificial Sequence: Cyclic peptide) [compound 37]”, the “Evaluation result” value is on record as “D (less than 0.1)”.

On to “38 (ICVYTFDAHAHSLHAALTKI; not fully specified; Description of Artificial Sequence: Cyclic peptide) [compound 38]”, for which the “Evaluation result” value is given as “A (0.7 or more)”.

On to “39 (ACVYTFDAHAHSLHAALTK(COCH2)I; thioether 2-19 (inferred)) [compound 39]”, for which the “Evaluation result” value is “A (0.7 or more)”.

“40 (GCVYTFDAHAHSLHAALTK(COCH2)I; thioether 2-19 (inferred)) [compound 40]”: the “Evaluation result” value is “A (0.7 or more)”.

Take “41 (PCVYTFDAHAHSLHAALTK(COCH2)I; thioether 2-19 (inferred)) [compound 41]”: the “Evaluation result” value is “A (0.7 or more)”.

“42 (LCVYTFDAHAHSLHAALTK(COCH2)I; thioether 2-19 (inferred)) [compound 42]”: the “Evaluation result” value is listed as “A (0.7 or more)”.

For “43 (VCVYTFDAHAHSLHAALTK(COCH2)I; thioether 2-19 (inferred)) [compound 43]”, the “Evaluation result” value is on record as “A (0.7 or more)”.

On to “44 (FCVYTFDAHAHSLHAALTK(COCH2)I; thioether 2-19 (inferred)) [compound 44]”, for which the “Evaluation result” value is “A (0.7 or more)”.

In the case of “45 (YCVYTFDAHAHSLHAALTK(COCH2)I; thioether 2-19 (inferred)) [compound 45]”, the “Evaluation result” value is on record as “A (0.7 or more)”.

Consider “46 (WCVYTFDAHAHSLHAALTK(COCH2)I; thioether 2-19 (inferred)) [compound 46]”, for which the “Evaluation result” value was “B (0.5 or more and less than 0.7)”.

“47 (NCVYTFDAHAHSLHAALTK(COCH2)I; thioether 2-19 (inferred)) [compound 47]”: the “Evaluation result” value is given as “A (0.7 or more)”.

With “48 (QCVYTFDAHAHSLHAALTK(COCH2)I; thioether 2-19 (inferred)) [compound 48]”, the “Evaluation result” value is reported as “A (0.7 or more)”.

Take “49 (SCVYTFDAHAHSLHAALTK(COCH2)I; thioether 2-19 (inferred)) [compound 49]”: the “Evaluation result” value is listed as “A (0.7 or more)”.

As for “50 (TCVYTFDAHAHSLHAALTK(COCH2)I; thioether 2-19 (inferred)) [compound 50]”, the “Evaluation result” value was “A (0.7 or more)”.

Take “51 (DCVYTFDAHAHSLHAALTK(COCH2)I; thioether 2-19 (inferred)) [compound 51]”: the “Evaluation result” value is “A (0.7 or more)”.

Take “52 (ECVYTFDAHAHSLHAALTK(COCH2)I; thioether 2-19 (inferred)) [compound 52]”: the “Evaluation result” value is “A (0.7 or more)”.

Take “53 (RCVYTFDAHAHSLHAALTK(COCH2)I; thioether 2-19 (inferred)) [compound 53]”: the “Evaluation result” value is “A (0.7 or more)”.

Take “54 (HCVYTFDAHAHSLHAALTK(COCH2)I; thioether 2-19 (inferred)) [compound 54]”: the “Evaluation result” value is recorded as “A (0.7 or more)”.

Take “55 (ICAYTFDAHAHSLHAALTK(COCH2)I; thioether 2-19 (inferred)) [compound 55]”: the “Evaluation result” value is “C (0.1 or more and less than 0.5)”.

Regarding “56 (ICLYTFDAHAHSLHAALTK(COCH2)I; thioether 2-19 (inferred)) [compound 56]”, the “Evaluation result” value is “B (0.5 or more and less than 0.7)”.

“57 (ICIYTFDAHAHSLHAALTK(COCH2)I; thioether 2-19 (inferred)) [compound 57]”: the “Evaluation result” value is “A (0.7 or more)”.

As to “58 (ICFYTFDAHAHSLHAALTK(COCH2)I; thioether 2-19 (inferred)) [compound 58]”, the “Evaluation result” value was “C (0.1 or more and less than 0.5)”.

As for “59 (ICYYTFDAHAHSLHAALTK(COCH2)I; thioether 2-19 (inferred)) [compound 59]”, the “Evaluation result” value was “C (0.1 or more and less than 0.5)”.

With “60 (ICTYTFDAHAHSLHAALTK(COCH2)I; thioether 2-19 (inferred)) [compound 60]”, the “Evaluation result” value is “C (0.1 or more and less than 0.5)”.

Consider “61 (ICVFTFDAHAHSLHAALTK(COCH2)I; thioether 2-19 (inferred)) [compound 61]”, for which the “Evaluation result” value is “C (0.1 or more and less than 0.5)”.

For the substance “62 (ICVWTFDAHAHSLHAALTK(COCH2)I; thioether 2-19 (inferred)) [compound 62]”, the “Evaluation result” value is “C (0.1 or more and less than 0.5)”.

For “63 (ICVHTFDAHAHSLHAALTK(COCH2)I; thioether 2-19 (inferred)) [compound 63]”, the “Evaluation result” value is reported as “A (0.7 or more)”.

As to “64 (ICVYAFDAHAHSLHAALTK(COCH2)I; thioether 2-19 (inferred)) [compound 64]”, the “Evaluation result” value is “B (0.5 or more and less than 0.7)”.

As to “65 (ICVYGFDAHAHSLHAALTK(COCH2)I; thioether 2-19 (inferred)) [compound 65]”, the “Evaluation result” value was “C (0.1 or more and less than 0.5)”.

As to “66 (ICVYLFDAHAHSLHAALTK(COCH2)I; thioether 2-19 (inferred)) [compound 66]”, the “Evaluation result” value was “C (0.1 or more and less than 0.5)”.

As to “67 (ICVYIFDAHAHSLHAALTK(COCH2)I; thioether 2-19 (inferred)) [compound 67]”, the “Evaluation result” value is “C (0.1 or more and less than 0.5)”.

As for “68 (ICVYVFDAHAHSLHAALTK(COCH2)I; thioether 2-19 (inferred)) [compound 68]”, the “Evaluation result” value was “C (0.1 or more and less than 0.5)”.

“69 (ICVYQFDAHAHSLHAALTK(COCH2)I; thioether 2-19 (inferred)) [compound 69]”: the “Evaluation result” value is “B (0.5 or more and less than 0.7)”.

“70 (ICVYSFDAHAHSLHAALTK(COCH2)I; thioether 2-19 (inferred)) [compound 70]”: the “Evaluation result” value was “A (0.7 or more)”.

Take “71 (ICVYEFDAHAHSLHAALTK(COCH2)I; thioether 2-19 (inferred)) [compound 71]”: the “Evaluation result” value is “C (0.1 or more and less than 0.5)”.

For “72 (ICVYRFDAHAHSLHAALTK(COCH2)I; thioether 2-19 (inferred)) [compound 72]”, the “Evaluation result” value was “C (0.1 or more and less than 0.5)”.

With “73 (ICVYHFDAHAHSLHAALTK(COCH2)I; thioether 2-19 (inferred)) [compound 73]”, the “Evaluation result” value is “C (0.1 or more and less than 0.5)”.
